These results are taken from patent publication US20230035798A1 (CAPELLA BIOSCIENCE, published 2023).

A word on the EC50: it is the midpoint of the concentration-response curve. By IC50 is commonly meant the midpoint of a concentration-inhibition curve. As a reminder, the Kd is the concentration at which binding is half-saturated. What is called EC50 (read off the curve) is the midpoint of the concentration-response curve. Higher therefore signals weaker potency.

Read-outs that look alike come from different tables or passages of the source.

The target of test [1] is T1, human LIGHT (TNFSF14), full length, membrane-bound (214E allele) (human, UniProt O43557 1-240).
T1 construct: also called membrane LIGHT; human membrane LIGHT
In words: flow cytometry, EL4-LIGHT cells. The protocol:
The EC50 of the 7 mAbs were calculated from binding to EL4-LIGHT cells (Table 7) which represents a more accurate comparison of the EC50's than utilising transiently transfected LIGHT cells. […] Non-linear regression analysis was performed to determine the functional binding affinity measurement or EC50 for each mAb. A range of functional affinities was observed.
Target sequence in this assay (O43557 whole entry K214E): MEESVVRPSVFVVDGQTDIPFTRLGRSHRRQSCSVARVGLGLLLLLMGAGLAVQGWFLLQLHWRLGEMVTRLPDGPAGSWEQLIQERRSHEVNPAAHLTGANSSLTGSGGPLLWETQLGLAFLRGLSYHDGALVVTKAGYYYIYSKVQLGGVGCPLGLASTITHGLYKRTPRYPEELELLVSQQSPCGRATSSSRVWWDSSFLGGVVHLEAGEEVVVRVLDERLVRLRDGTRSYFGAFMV

Test [2] addresses T1, human LIGHT (TNFSF14), full length, …. In words: flow cytometry, maximum signal compared with F19 and F23. For orientation: In flow cytometry, cells or beads pass a laser one at a time.
Target sequence in this assay (O43557 whole entry K214E): as above
Test [3] shares this target. In words: flow cytometry, transiently transfected HEK293FF cells. The source says:
(§1) In order to compare the cross-reactivity of the mAbs to both human and cynomolgus LIGHT, transiently transfected human or cynomolgus LIGHT-HEK293FF cells were utilised in which approximately 50% of the cells expressed LIGHT and bound mAb was detected with goat anti-human IgG FITC. The EC50 of each mAb is depicted in Table 6 after correction for background binding to untransfected cells. (Note that when the relationship between receptor occupancy and response is linear, EC50 may be equivalent or substantially equivalent to KD).
Target sequence in this assay (O43557 whole entry K214E): as above

The target of test [4] is T2, cynomolgus (Macaca fascicularis) LIGHT, membrane-bound (cynomolgus (Macaca fascicularis), UniProt E9NVF7 1-240).
T2 construct: whole, on cells; also called cynomolgus membrane LIGHT; HEK293FF-cynomolgus LIGHT cells
T2 sequence (E9NVF7 entry or part of it): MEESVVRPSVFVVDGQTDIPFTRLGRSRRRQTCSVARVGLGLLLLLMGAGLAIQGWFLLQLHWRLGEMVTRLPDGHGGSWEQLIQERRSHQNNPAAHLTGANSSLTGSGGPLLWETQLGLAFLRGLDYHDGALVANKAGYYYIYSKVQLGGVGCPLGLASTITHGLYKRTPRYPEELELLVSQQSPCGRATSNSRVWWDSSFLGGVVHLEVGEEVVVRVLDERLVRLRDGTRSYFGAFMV
The test is described as above.
Text: as §1

The target in test [5] is T1, human LIGHT (TNFSF14), full length, …. In words: competition with biotin-HVEM-Fc, EL4-LIGHT cells, flow cytometry. As for the experimental part: Biotin-LTβR-Fc and biotin-HVEM-Fc were prepared using a kit purchased from ThermoFisher (EZ-Link NHS-LC-Biotin; cat. no. 21336) according to the manufacturer's instructions. […] The diluent used was FACS buffer. The cells were washed 3 times with FACS buffer and biotin-LTβR-Fc and biotin-HVEM-Fc binding detection to cells was performed with streptavidin-APC (1:400; BioLegend cat. No. 405207) for 30 min at 4° C. and fluorescence read in the RL-1 channel. The anti-HEL mAb 2A11 was utilised as a background control.
The above experiment was repeated utilising LIGHT stably expressed on EL4-cells and the results depicted in Table 11B.
Target sequence in this assay (O43557 whole entry K214E): as the sequence (O43557 whole entry K214E) above

For test [6], the target named is T3, membrane LIGHT without residues 81-84 (EL4-NC-LIGHT cells) (human, UniProt O43557 1-240). In words: cell-based or functional assay.
T3 sequence (O43557 other isoform, or with tags, fused parts or gaps): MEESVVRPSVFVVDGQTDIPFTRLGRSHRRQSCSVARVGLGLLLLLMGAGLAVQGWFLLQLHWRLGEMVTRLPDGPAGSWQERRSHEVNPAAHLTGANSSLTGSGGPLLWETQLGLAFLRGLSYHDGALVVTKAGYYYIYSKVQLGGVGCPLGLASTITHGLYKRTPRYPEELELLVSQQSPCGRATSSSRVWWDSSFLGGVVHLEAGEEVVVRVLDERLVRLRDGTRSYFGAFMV
Test [7] deals with T4, recombinant human soluble LIGHT, amino acids 74-240 (R&D Systems 664-LI-025) (human, UniProt O43557 74-240).
T4 construct: range 74-240; also called 74-240 LIGHT; Soluble LIGHT 74-240
T4 chain: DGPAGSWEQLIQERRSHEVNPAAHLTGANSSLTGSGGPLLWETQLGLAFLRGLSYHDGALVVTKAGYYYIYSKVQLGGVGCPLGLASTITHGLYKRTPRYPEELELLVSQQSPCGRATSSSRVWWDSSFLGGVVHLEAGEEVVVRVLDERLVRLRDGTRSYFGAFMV
In words: SPR (BIAcore), as for Table 9. As for the experimental part:
Real-time binding interactions between captured antibody (chimeric anti-membrane LIGHT monoclonal antibody) captured on a biosensor matrix via goat anti-human Fe IgG and recombinant soluble LIGHT were measured by surface plasmon resonance (SPR) using the BIAcore system (GE Healthcare) according to manufacturer's instructions and standard procedures. Briefly, soluble LIGHT was diluted in HBS running buffer (GE Healthcare) and aliquots were injected through the immobilized protein matrices at a flow rate of […]. BIAevaluation software was used to calculate association rate (ka), dissociation rate (kd) and affinity (KD).
The specificity of further anti-membrane LIGHT mAbs to soluble LIGHT was determined by using the same BIAcore analysis discussed above which was used to generate the data in Table 9. In brief, mAbs 3B04, 3D12, 3A07, 3C10 and 2B11 were compared to various prior art antibodies, (F19 and F23 IgG4 mAbs from EP2292663 and 1C02, 13H04 and 31A10 mAbs from WO2015/107331).
On the technique in general: Surface plasmon resonance follows binding to a sensor surface in real time, without labels.

The target in test [8] is T1, human LIGHT (TNFSF14), full length, …. In words: membrane LIGHT on cells, as for Table 9.
Target sequence in this assay (O43557 whole entry K214E): as the sequence (O43557 whole entry K214E) above
For test [9] the target is unchanged. In words: soluble LIGHT 74-240 KD over membrane LIGHT KD.
Target sequence in this assay (O43557 whole entry K214E): as above
For test [10], the target named is T3, membrane LIGHT without residues 81-84 …. Briefly: cell-based or functional assay. This is another data set of the same source.
Test [11] deals with T1, human LIGHT (TNFSF14), full length, …. In words: KD calculated from EC50 on EL4-LIGHT cells, flow cytometry.
The target is the same in test [12]. Briefly: flow cytometry, EL4-LIGHT cells, maximum signal compared with F19 and F23. The source says: FIG. 7 depicts the flow cytometry analysis of the anti-membrane LIGHT mAbs (3B04 and 3D12) binding to LIGHT stably expressed on EL4 cells. The maximum signal of the IgG4 mAbs 3B04 and 3D12 binding to membrane LIGHT is approximately 40000 MFI. In contrast anti-LIGHT mAbs F19 and F23 (IgG4 mAbs from EP2292663) gave a maximal signal of approximately 120000 MFI. The ratio of binding of mAb F19 and mAb F23 is approximately 3 times that of the anti-membrane LIGHT mAbs 3B04 and 3D12. […] Other mAbs of this invention; 2E08, 3A07, 3C10, 3E09 and 2B11 also bind LIGHT in a 1:1 ratio when compared to mAbs F19 and F23 by flow cytometry.

For test [13] the target is unchanged. In words: flow cytometry, mAb binding to EL4 cells stably expressing human LIGHT [lower panel].

B1: 3E09 (antibody, V domains shown)
VH: EVQLVESGGGLVKPGGSLKLSCEASGFTFSDYYMYWVRQTPEKRLEWVAAIGDGGIYTYYADTVKGRFTISRDNAKNILYLQMSSLKSNDTAMYYCARGTGDGFAYWGQGTLVTVS
VL: DIVLTQSPASLAVSLGQRATISCRASESVDSYGNSFMHWYQQKPGQPPKLLIYLASNLESGVPARFSGSGSRTDFTLTIDPVEADDAATYYCQQNNEDPYTFGGGTKLEIK
notes: chimeric human IgG4 (S-to-P, L-to-E at 248), human CL; also called Parental 3E09
Take B1: the EC50 in [1] is 8.1 nM; in test [3], 1.3 nM; in test [4], 0.7 nM. Moreover, the “binding ratio, mAb per LIGHT trimer” value in test [2] was 1 mAb per LIGHT trimer. In test [5], the IC50 is 24.1 nM.

B2: 2E08 (antibody, human IgG4, V domains shown)
VH: QVQMKESGAELVRPGVSVKISCKGSGYTFTDYAIHWVKQSHAKTLEWIGVISTYYGDASYNQKFKGKATMTVDKSSSTAYMELARLTSDDSAIYYCARSRGEYGNYDAMDYWGQGTSVTVSS
VL: DIVLTQSPASLAVSLGQRATISCKASQSVDYDGDSYMNWYQQKPGQPPKLLIYAASNLESGIPARFSGSGSGTDFTLNIHPVEEEDAATYYCQQSNEDPLTFGAGTKLELK
notes: chimeric human IgG4 (S-to-P, L-to-E at 248), human CL; also called Parental 2E08
As for B2, the “IC50, inhibition of IL-8 secretion from HT-29 cells (EL4-NC-LIGHT cells)” value (shortened to “IC50, inhibition of IL-8 secretion”) in [6] is 1.8 nM. Moreover, the concentration for a half-maximal effect (EC50) in test [1] was 1.8 nM; in [3], 0.3 nM; in test [4], 0.3 nM. In addition, the “binding ratio, mAb per LIGHT trimer” value in [2] was found to be 1 mAb per LIGHT trimer. The IC50 in [5] stood at 4.3 nM.

B3: 2B11 (antibody, human IgG4, V domains shown)
VH: EVQLVESGAELVRPGVSVKISCKGSGYTFTDYAIHWVKQSHAKSLEWIGVISTYYGDASYNQKFKGKATMTVDKSSSTAYMELARLTSEDSAIYYCARSRGEYGNYDAMDYWGQGTSVTVSS
VL: DIVLTQSPASLAVSLGQRATISCRASESVDSYGNSFMHWYQQKPGQPPKLLIYRASNLESGIPARFSGSGSRTDFTLTINPVEADDVATYYCQQSNEDPYTFGGGTKLEIK
notes: chimeric human IgG4 (S-to-P, L-to-E at 248), human CL; also called Parental 2B11
Regarding B3, the “IC50, inhibition of IL-8 secretion” value in test [6] was found to be 0.6 nM. Also, the Kd in test [7] came out at 16 nM; in test [8] it was 0.34 nM. Besides, the EC50 was found to be 0.3 nM in test [1], 0.4 nM in test [3] and 0.02 nM in [4]. In test [9], the “Membrane:soluble LIGHT affinity ratio” value was found to be 47.1. Moreover, the “binding ratio, mAb per LIGHT trimer” value in test [2] stood at 1 mAb per LIGHT trimer. The molecule also registered an IC50 in test [5] of 0.34 nM.

B4: 3A07 (antibody, human IgG4, V domains shown)
VH: QVQLQQSGAELVRPGAPVTLSCKASDYTFTDSEIHWVKQTPVHGLEWIGEIDPETGGTAYNQKFKGKATLTADKSSSTAYMELRSLTSEDSAVYYCSRETDYFFDYWGQGTTLTVSS
VL: ENVLTQSPAIMSASPGEKVTMTCSASSSVSYMYWYQQRPGSSPRLLIYDTSNLASGVPVRFSGSGSGTSYSLTISRMEAEDAATYYCQQWSSYPLTFGSGTKLEIK
notes: chimeric human IgG4 (S-to-P, L-to-E at 248), human CL; also called Parental 3A07
Take B4: the “IC50, inhibition of IL-8 secretion” value in test [6] is 2 nM. Further, the Kd in test [7] was determined as 15.8 nM; in [8], 0.15 nM. Also, the EC50 in test [1] is 0.14 nM; in [3], 0.1 nM; in [4], 7.6 nM. Besides, the “Membrane:soluble LIGHT affinity ratio” value in test [9] amounted to 105. Also, the “binding ratio, mAb per LIGHT trimer” value in test [2] turned out to be 1 mAb per LIGHT trimer. In test [5], this molecule returned an IC50 of 0.32 nM.

B5: 3B04 (antibody, human IgG4, V domains shown)
VH: QVQLQQPGAELVRPGASVTLSCKASGYTFTDYEMHWVKQTPVHGLEWIGEIDPETGDTAYSQKFKGKATLTADKSSSTAYMEFRSLTSEDSAVYYCSRETDYFFDYWGQGTTLTVSS
VL: DIQMTQTPASLSASVGETVTITCGASENIYGALNWYQRKQGKSPQLLIYGATNLADGMSSRFSGSGSGRQYSLKISSLHPDDFATYYCQNVLTTPWTFGGGTKLEIKR
notes: chimeric: mouse variable domains on human IgG4 HC (S-to-P and L-to-E at 248) and human CL; also called Parental 3B04; 3B04 chimeric
For the molecule B5, the figures for the “IC50, inhibition of IL-8 secretion” value in [6] and in test [10] were 0.2 nM and 0.05 nM, respectively. Also, the Kd is 11.1 nM in [7], 0.21 nM in test [8] and 0.15 nM in [11]. Also, the values for the EC50 in test [1], in test [3] and in test [4] were 0.15 nM, 0.2 nM and 0.1 nM, respectively. Moreover, in [9], the “Membrane:soluble LIGHT affinity ratio” value worked out at 52.9. This molecule also registered a half-maximal inhibitory concentration (IC50) in test [5] of 0.13 nM. Further, in test [12], the “binding ratio, mAb per LIGHT trimer” value was 1 mAb per LIGHT trimer. For the same molecule, the “EC50 (read off the curve)” value in test [13] is around 0.2 nM.

B6: 3C10 (antibody, human IgG4, V domains shown)
VH: EVQLQQSGAELVRPGASVTLSCKASDYTFTDSEIHWVKQTPVHGLEWIGEIDPETGGTAYNQKFKGKATLTADKSSSTAYMELRSLTSEDSAVYYCSRETDYFFDYWGQGTTLTVSS
VL: DVVMTQTPAIMSASPGEKVTMTCSASSSVSYMYWYQQKPGSSPRLLIYDTSNLASGVPVRFSGSGSGTSYSLTISRMEAEDAATYYCQQWSSYPLTFGAGTKLELK
notes: chimeric human IgG4 (S-to-P, L-to-E at 248), human CL; also called Parental 3C10
Regarding B6, the “IC50, inhibition of IL-8 secretion” value in [6] is 1.9 nM. For the same molecule, the Kd in [7] stood at 11 nM; in test [8], 0.18 nM. Also, the EC50 in [1] was determined as 0.16 nM; in test [3], 0.2 nM; in test [4], 10.3 nM. Moreover, the “Membrane:soluble LIGHT affinity ratio” value in [9] came out at 61.1. Besides, the “binding ratio, mAb per LIGHT trimer” value in test [2] came to 1 mAb per LIGHT trimer. Further, in [5], the IC50 turned out to be 0.8 nM.
